Measured values taken from the supplement of paper PMC7125110.
± gives the standard error. For some assays here: Fewer inactive variants are shown than the library holds.

B1: glmS ribozyme (parent)
chain: AUAAAAGCGCCAGAACUACAGAAAUGUAGUUGACGAGGAGGAGGUUUAUCGAAUUUUCGGCGGAUGCCUCCAAA

Experiments:
Details in all cases: with glucosamine-6-phosphate
glucosamine-6-phosphate [1] = variants of: B1; experiment: kcat; higher = faster cleavage; RNA array
In short: (§1)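 Glucosamine-6-phosphate (40 μM to 10 mM) in HEPES/KCl/Mg(OAc)2 buffer was flowed over sequenced MiSeq chips, and tiles were imaged over ~14 h. Barcoded ribozyme variants there had been transcribed in situ by E. coli RNA polymerase and were tracked through a hybridised Cy3 probe at 37 °C. One- or two-exponential decay fits to per-tile medians, normalised to baseline and to non-cleaving reference variants, gave kobs. kcat and KM came from weighted Michaelis–Menten fits across concentrations.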

glucosamine-6-phosphate [2] = variants of: B1; experiment: self-cleavage kobs at 40 uM GlcN6P; higher = faster cleavage; RNA array
In short: as §1

glucosamine-6-phosphate [3] = variants of: B1; experiment: self-cleavage kobs at 160 uM GlcN6P; higher = faster cleavage; RNA array
In short: as §1

glucosamine-6-phosphate [4] = variants of: B1; experiment: self-cleavage kobs at 640 uM GlcN6P; higher = faster cleavage; RNA array
In short: as §1

glucosamine-6-phosphate [5] = variants of: B1; experiment: self-cleavage kobs at 2500 uM GlcN6P; higher = faster cleavage; RNA array
In short: as §1

glucosamine-6-phosphate [6] = variants of: B1; experiment: self-cleavage kobs at 10000 uM GlcN6P; higher = faster cleavage; RNA array
In short: as §1

glucosamine-6-phosphate [7] = variants of: B1; experiment: KM; higher = weaker cofactor use; RNA array
In short: as §1

Row | Variant | kcat (glucosamine-6-phosphate [1]) [s⁻¹] | self-cleavage kobs at 40 uM GlcN6P (glucosamine-6-phosphate [2]) [s⁻¹] | self-cleavage kobs at 160 uM GlcN6P (glucosamine-6-phosphate [3]) [s⁻¹] | self-cleavage kobs at 640 uM GlcN6P (glucosamine-6-phosphate [4]) [s⁻¹] | self-cleavage kobs at 2500 uM GlcN6P (glucosamine-6-phosphate [5]) [s⁻¹] | self-cleavage kobs at 10000 uM GlcN6P (glucosamine-6-phosphate [6]) [s⁻¹] | KM (glucosamine-6-phosphate [7]) [µM]
1 | AUAAAAGCGCCAGAUCUACAGAAAUGUAGUUGACGAGGAGGAGGUUUAUCGAAUUUUCUGCGGAUGCCUCCAAA | < 1e-05 | < 1e-05 | < 1e-05 | – | – | – | –
2 | AUAAAAGCGCCAGAUCUACAGAAAUGUAGUUGACGAGGAGGAGUUUGAUCGAAUUUUCGGCGGAUGGCUCCAAA | 0.000544 ± 0.00017 | – | – | 0.000193 ± 3.9e-05 | 0.000563 ± 9.9e-05 | 0.000418 ± 9.9e-05 | –
3 | AUAAAAGCGCCAGAUCUACAGAAAUGUAGCUGACGAGGAGGAGGUUUAUCGAAUUUUCGGCGGAUGCCUCCAAA | 0.000145 ± 1.2e-05 | – | – | 3.48e-05 ± 6.3e-06 | 6.99e-05 ± 6.6e-06 | 0.00012 ± 1.1e-05 | 2410 ± 450
4 | AUAAAAGCGCCAGAUCUACAGAAAUGUAGUUGACGAGGAGGAGGUUUAGCGAAUUUUCGGCGGAUGCCUCCAAA | 9.5e-05 ± 7.9e-06 | – | – | 2.05e-05 ± 9.2e-06 | 5.99e-05 ± 8e-06 | 7.95e-05 ± 8.2e-06 | 1730 ± 470
5 | AUAAAAGCGCCAGAUCUACAGAAAUGUAGUAGACGAGGAGGAGGUUUAUCGAAUUUUCGGCGGAUGCCUCCAAA | 0.00127 ± 0.00026 | 3.45e-05 ± 7.5e-06 | 4.67e-05 ± 2e-05 | 0.000289 ± 5.3e-05 | 0.000874 ± 0.00015 | 0.00101 ± 9.8e-05 | 2230 ± 880
6 | AUAAAAGCGCCAGAUCUACAGAAAUGUAGUUGACGAGGAGAAGGUUUAUCGAAUUUUCGGCGGAUGCCUCCAAA | 0.000124 ± 3.5e-05 | – | – | 6.09e-05 ± 1.6e-05 | 0.000147 ± 2.5e-05 | 8.75e-05 ± 2.5e-05 | –
7 | AUAAAAGCGCCAGAUCUACAGAAAUGUAGUUGACGAGGAGGAGGUUUAUCGAAUUUUCGGCGGAUACCUCCAAA | 0.00705 ± 0.002 | 4.82e-05 ± 1.6e-05 | 0.000124 ± 2.4e-05 | 0.000781 ± 0.00023 | 0.00183 ± 0.00057 | 0.00391 ± 0.00065 | 7800 ± 2800
8 | AUAAAAGCGCCAGAUCUACAGAAAUGUAGUGGACGAGGAGGAGGUUUAUCGAAUUUUCGGCGGAUGCCUCUAAA | 0.00048 ± 0.00012 | 6.97e-05 ± 3.1e-05 | 6.51e-05 ± 1.8e-05 | 0.000238 ± 3.6e-05 | 0.000267 ± 6.8e-05 | 0.000517 ± 9.1e-05 | –
